Data as given in patent US20170267766A1 (PIERRE FABRE MEDICAMENT, published 2017).

What was measured:
[1] = target: T1, human IGF-1R (native, on cells) (human, UniProt P08069 31-1367); experiment: cell-based or functional assay
[2] = target: T1, human IGF-1R (native, on cells); experiment: FACS titration, MCF-7
Experimental: (§1) The binding properties of a series of anti-IGF-1R antibodies were evaluated by FACS analyses on the human MCF-7 breast adenocarcinoma cell line (ATCC#HTB-22) using increasing antibody concentrations. For that purpose, cells (1×10⁶ cells/ml) were incubated with anti-IGF-1R antibodies for 20 min. at 4° C. in FACS buffer (PBS, 0.1% BSA, 0.01% NaN₃). They were then washed 3 times and incubated with the appropriate secondary antibody coupled with Alexa 488 for 20 additional minutes at 4° C. in the dark before being washed 3 times in FACS buffer. The binding of anti-IGF-1R antibodies was immediately performed on viable cells which were identified using propidium iodide (that stains dead cells). The maximum of signal intensity obtained with each antibody was designed as Bₘₐₓ and expressed in mean of fluorescence intensity (MFI). The EC₅₀ of binding expressed in molarity (M) was calculated using a nonlinear regression analysis (GraphPad Prims 4.0).

[3] = target: T1, human IGF-1R (native, on cells); experiment: cell-based or functional assay; remark: listed apart in the source
[4] = target: T2, monkey IGF-1R (on COS-7 cells) (African green monkey); experiment: cell-based or functional assay
[5] = target: T1, human IGF-1R (native, on cells); experiment: FACS titration, hIGF-1R transfected cells
Experimental: Briefly, increasing concentrations of chimeric mAbs were incubated with cells for 20 min at 4° C. in FACS buffer (PBS, 0.1% BSA, 0.01% NaN₃). Cells were then washed 3 times and incubated with the appropriate secondary antibody coupled with Alexa 488 before being incubated for 20 additional minutes at 4° C. in the dark and then washed 3 times in FACS buffer. The binding of anti-IGF-1R antibodies was immediately performed on viable cells which were identified using propidium iodide (that stains dead cells). The binding EC₅₀ expressed in molarity (M) was calculated using a nonlinear regression analysis (GraphPad Prims 4.0).

[6] = target: T3, soluble recombinant Cynomolgus monkey IGF-1R with C-terminal 10-His tag (produced in house) (Cynomolgus monkey); experiment: SPR, common fit of the human and cynomolgus sensorgrams
T3 construct: extracellular domain; also called Cynomolgus IGF-1R ECD; Macaca IGF-1R
Experimental: (§2) The recognition experiments were run on a Biacore X100 device using a CM5 sensor chip activated by an anti-Tag His antibody (His capture kit GE Healthcare catalogue number 28-9950-56). More than 11000 RU of antibodies are chemically grafted on the carboxymethyldextan matrix using the amine kit chemistry. The experiments were carried out at 25° C. with a flow rate of 30 μl/min using the HBS-EP buffer (GE Healthcare) as the running and sample dilution buffer.
(§3) Solution of a second antibody is either injected in the same conditions on both flowcells or only on the second flowcell. […] At the end of the fifth injection the running buffer was passed in order to define the dissociation rate. The surface was then regenerated with an injection of a 10 mM Glycine, HCl pH 1.5 buffer during 30s.
(§4) The resulting sensorgrams were analysed using the Biaevaluation software with a 1:1 model. […] The quality of the fitting was assessed by a Chi2/Rmax ratio lower than 0.05 RU.

[7] = target: T1, human IGF-1R (native, on cells); experiment: FACS on MCF-7 cells, 4°C; inset table, axis log [M]
Experimental: as §1

[8] = target: T2, monkey IGF-1R (on COS-7 cells); experiment: FACS on COS-7 cells, 4°C; inset table, axis log [M]
Experimental: In order to evaluate the binding of anti-IGF-1R antibodies on monkey IGF-1R, the binding of both murine and chimeric anti-hIGF-1R antibodies was evaluated by FACS analyses on COS-7 cell line using increasing antibody concentrations. Cells (1×10⁶ cells/ml) were incubated with anti-IGF-1R antibodies for 20 minutes at 4° C. in FACS buffer (PBS, 0.1% BSA, 0.01% NaN₃). Then, cells were washed 3 times and incubated with the appropriate secondary antibody coupled with Alexa 488 before being incubated for 20 additional minutes at 4° C. in the dark and finally washed 3 times in FACS buffer. The binding of anti-IGF-1R antibodies was immediately evaluated on viable cells identified using propidium iodide (that stains dead cells). The binding EC₅₀ expressed in molarity (M) was calculated using a nonlinear regression analysis (GraphPad Prims 4.0).

[9] = target: T3, soluble recombinant Cynomolgus monkey …; experiment: SPR Biacore X100, single cycle kinetics, His-captured IGF-1R ~160 RU, 1:1 model
Experimental: as §2, §3, §4

[10] = target: T4, chimerical h/m IGF-1R construct C2 (human/mouse chimera, UniProt Q60751 31-937 (mouse entry)); experiment: SPR (Biacore X100), ratio of IGF-1R binding level to c208F2 capture level, supernatants diluted 10 times
T4 construct: soluble form, supernatant
T4 sequence (Q60751 other isoform, or with tags, fused parts or gaps mutant limits assumed): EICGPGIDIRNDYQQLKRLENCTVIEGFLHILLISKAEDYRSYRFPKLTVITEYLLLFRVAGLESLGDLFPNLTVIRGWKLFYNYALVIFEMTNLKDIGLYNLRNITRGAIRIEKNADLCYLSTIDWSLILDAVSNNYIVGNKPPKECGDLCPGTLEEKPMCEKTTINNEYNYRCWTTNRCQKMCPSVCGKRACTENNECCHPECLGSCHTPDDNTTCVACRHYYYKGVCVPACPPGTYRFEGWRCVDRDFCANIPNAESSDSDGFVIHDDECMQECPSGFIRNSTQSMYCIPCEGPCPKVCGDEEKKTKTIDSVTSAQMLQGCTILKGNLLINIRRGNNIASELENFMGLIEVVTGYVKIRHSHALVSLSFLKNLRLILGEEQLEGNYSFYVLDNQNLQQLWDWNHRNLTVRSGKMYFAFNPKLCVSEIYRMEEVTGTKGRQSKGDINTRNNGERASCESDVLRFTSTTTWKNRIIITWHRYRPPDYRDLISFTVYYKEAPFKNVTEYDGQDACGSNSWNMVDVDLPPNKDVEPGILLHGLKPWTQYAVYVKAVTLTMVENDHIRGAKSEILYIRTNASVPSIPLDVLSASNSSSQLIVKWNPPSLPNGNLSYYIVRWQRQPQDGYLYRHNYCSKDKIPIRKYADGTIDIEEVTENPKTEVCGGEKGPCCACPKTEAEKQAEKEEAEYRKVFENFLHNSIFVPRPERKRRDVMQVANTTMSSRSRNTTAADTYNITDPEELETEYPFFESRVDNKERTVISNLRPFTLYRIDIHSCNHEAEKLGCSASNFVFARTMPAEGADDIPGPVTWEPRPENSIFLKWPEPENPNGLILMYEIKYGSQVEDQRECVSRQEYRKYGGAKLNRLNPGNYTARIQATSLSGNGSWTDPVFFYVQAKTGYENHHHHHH

[11] = target: T5, chimerical h/m IGF-1R construct C7 (human/mouse chimera, UniProt P08069 31-932, limits assumed); experiment: as above
T5 construct: 17 mouse specific residues

hIGF-1R phosphorylation, % of that induced by IGF-1 (MCF-7, Ab 10 µg/ml) [1]: < 20%
Bmax [2]: 981 MFI
EC50 [2]: 670 pM
% Internalization (MCF-7, 10 µg/ml, 4 h) [3]: 83%
ΔMFI [3]: 288 MFI
% internalisation [4]: 67%
ΔMFI [4]: 52 MFI
Bmax [5]: 2010 MFI
EC50 [5]: 320 pM
Kd [6]: 220 pM
EC50 [7]: 532 pM
EC50 [8]: 657 pM
Kd [9]: 170 pM
binding result [10]: no binding
binding result [11]: binds
B1: c208F2 (antibody, human IgG1, kappa, V domains shown)
VH: QVQLQQSGPELVKPGASVKMSCKASGYTFTSYYIYWVKQRPGQGLEWLGWIWPGDGSTKYNEKFKDKTTLTADKSSNTAYMFLSSLTSEDSAVYFCASPMITPNYAMDYWGQGASVTVSS
VL: DIQMTQTTSSLSASLGDRVTISCRASQDISKYLNWYQQQPDGTIKLLIYYTSRLHSGVPSRFSGRGSGTDYSLTISNVEQEDIATYFCQQGSTLPYTFGGGTKLEIKR
notes: group G2; also called chimeric 208F2
